Measured values taken from the DeepSol protein solubility set.

test: soluble on expression in E. coli; label from the status in PepcDB or PDB records

Sequence	soluble on expression in E. coli
MAWSRVGDNIATHPLMSRLLTSCEFDHSLKNEAFGALVQLTTVSAAHLTDYIIEYGLMAQIAPGREKQLIDVLVDAGMLFRDEVDGRKVLRIVDDNELLHNRSRDEVEIDRRRAADKRNPALIPAVRYRDGDQCRWCGRTVDWRDRKGGRAATIDSLNEHRESTVDTLVVACKSCNSKRGAGEELQLLPTPTREKVHYTDHTIDWINRSEWAQHEGIHLEPRQTHLDIGQQITTPAAPSEQQQVGQAAAPLEAAARAHRAAPDVEAPFVSDPLDEAPDWVKQSLVNDHGQAAAPLMAAAPREHDHAPAAPSEQQQVGQAAAPLEAAARAHRAAPDVEAPPQHHVDNETVKPSTDLEQITDRWGDGSRSLGTGRDGNGQVGTARRRRRRRRGGRGTGRNKAHG	not soluble
MAWTSTLPAHLLNLIKNSKYVHVATCSKDCIPSVALMNYIYVPGEKLFGQTDNKNDYIIFVSPQDTQKFYNIKENPKVALLFHDWIIANNLSVGKESISGTPTPTSIPHEEQRQSELLNLLQELNQAELNQMSASIGGETEIVNPESEESKYYKDLILKANPDAKAFIFEKNTAVVKVRIDNARVSNNENRTMFLSKGKS	soluble
MAYDSRLPEQRDPATDPSANYDYQGDSVNRPDLVSALEQRVDGDVRFDTYTRELFATDASAYEQLPIGVVSPVSTEDVVAVMEYCAAEDIPVLPRGGGTSLAGQAVNEAVVLDFKRYMDE	not soluble
MCDTLILRHQGQTWFAKNSDREPAEPQRLLRLPAVRNDPEARLRTTYLDIPQTAQRHALVISQPSWIWGAEMGVNEHGVAIGNEAVFTKLTRQRGTALLGMDLLRLGLERGASAREALEVITGLLQRYGQGGPAGYRDKRIRYDNSFLIADPGEAWVLETAGNLWAAKKVERWAISNALTLGHEFDLCSRDLEDQARRQGCWDGRGDFHFARVFDTRLLPWVGGAHRRCRINQRFLDSLPGEPDWHALFAALRHHGPRGDHFRRHNNRQVCMHAGSFWRPSQTTASLVARLRDDGPLLAATGTSAPCLGLFQPLSFDPASGAAVLSQPREAVQESPWWRFEAVHRRALTDRAFRRLLRSGRDWLERELFADLEQPDWPRLAEDAAAWHACWHDQVAMQPLAQQRWWRSHAALAAALEHHHHHH	not soluble
MCGIFAYLNFLTPKKRSEIVDILVQGLQRMEYRGYDSAGIAIDGSNEIESPHSSVALLRKAGKVSVLSDFIKESSSDLDMDMEYNIHCGIAHTRWATHGSPRDVNSHPHRSNDKNEFLVVHNGIITNYREIKEYLEKKGHKFESETDTEVIAKLAQHIHDRYPDFSFRQLVETVIQQLEGAFALAFKSSRFPGQLVASRRGSPLLVGIKSNSRLQTNHFPVSFSKDAGWKWGDEKQTDGRRFMSNHATHLRDETSFVETPNNILDLSIAVRSSNGSAKMEISDSTTAVRPFDSDDWEVEYFVASDAAAIIEHTKQVLFLEDDDVAFVEDGALTIHRISRHADNGEQKREVKLLEMELQEIMKGSFKTYMQKEIFEQPDSVVNTMRGRVLPSGQVVLGGIKEYLPDIKRCRRLIMVACGTSYHSAIACRQILEELSELPVVVELASDFLDRETPIFRDDVCLFISQSGETADTLLALRYCKPRGALTIGVTNTVGSSICRESHCGIHINAGPEIGVASTKAYTSQILSLLMFALTLSDDRISMAKRREEIIDALNDLPELIREVLQLDEKVLDIAKQIYKEKSLLIMGRGLNFATCLEGALKIKELSYMHCEGIMSGELKHGPLAMVDEFLSICMVVCNDRVYKKSLNALQQVVARKGAPIIIADCTVPEGDLAGMKHILRVPKTVDCVQNILTVIPLQLLSYHIAELNGANVDRPRNLAKSVTVE	not soluble
MCGKFTLFSEFDDIIEQFNIDQFLPEGEYHPSYNVAPSQNILTIINDGSNNRLGKLRWGLIPPCAKDEKIGYKMINARAETLAEKPSFRKPLGSKRCIIPADSFYEWKRLDPKTKIPMRIKLKSSNLFAFAGLYEKWNTLEGNLLYTCTIITIKPSELMEDIHDRMPVILTDENKKEWLNPKNTDPDYLQSLLLPYDADDMEAYQVSSLVNSPELIESHLEHHHHHH	not soluble
MCIGMDIRDFFAQSAGRWFSQRTSHHLAFKQTESGKSQLTIELLSVDDPAVIALCQQYDMDPAWAVCGARVSWDGTMEWDNEKHEGSTVLVPIMDQGSRMEGKLLREMGYAEKAPVAGRFSMGSDGALTLITEYETIYSEERLWFASPNLRLRTSILKRFGGFSMASFCSEIRLGVTQPANSLEHHHHHH	soluble
MCIGVPGQVLAVGEDIHQLAQVEVCGIKRDVNIALICEGNPADLLGQWVLVHVGFAMSIIDEDEAKATLDALRQMDYDITSA	not soluble
MCTGIKIISKTNDIFYGRTMDFTFDFFGNEDPIAPKIPTLIAQFPKGTVLNSQLNPWTAKYAFMGLAMSGTDQPANDGKTVSLAITDGINEAGLSGDIQYLMESSTAPAESLADRGLTPHIAEEVLAYILSNFESVDEVKVAFEKIGLLDQKFQLDSLGEVHFTLHWTINDKNNNSIVLQPTDNGAFVIYDSIGVVTNSPEYNYHLTNARNYIGMRNYAIKEPYTLKSGATLDPIEGGTSYGLLGIPGDFTSPSRFIRALYYSDNLQEFDSSEGIMQLYRAFQTVMIPRGIGHLGQSNSLSDFTHYWSGYDVTNLTMYVQPESTTSFTKYTLDPALTEVTTFAVSNELLLTDLNQ	not soluble
MCTSKPKFIPLPEQQSLCSLPNSGCCHVDVKVGRSKWEKRVAVLVQVEGEPDYKIYIYTKPLIGQIYPLNELKKREVKCEKDKVFLVNLASEKGEKITFKATGNNGSIWVAALMSGTFTSPIHETHGHTGGTGTDGTTSNIESDLKEKPDTNVYTGSREGYVPPPAKEGSGSGGKKKDMNNVAVKPDEKKKDSGRKLKKTVSKTITKLSVSESKKKTEKKIAATQKTQEFPIPKTVDEAHTNSEPDGDPLKLKKTITDGNELSLKGATAPTPQKAKLTTPTSTTPASSLTPSNALTPGNEDKKKMTTDSEEIELHEKKK	soluble
MDAFRLAPCGPLRGRLRVPGDKSVTHRGLMLLALAEGEGRLFYPLKAGDTLSTARVLQALGAEVREEGPHFLVRGRGLRFQEPEDVLDCGNAGTLMRLLLGLLAGQEGLFAVLTGDASLRRRPMGRVVAPLRAMGARVDGREEGERAPLAVRGAPLRGLRYTLPVPSAQVKSALLLAGLFAEGVTKVEEPTPTRDHTERLFRHFGLPLEVEGRKVRTWRTGPFPAKDLVVPGDFSSAAFFLVAALVTPGSEVVVEGVGLNPTRTGLLTVLKAMGADLEWQVLEGEAGEPVGWVRARHSLLKGVAVDPGLIPLMVDEVPVLAAAAAWAEGETYIPGLSELRVKESDRVRAIAENLRALGVEVEEGPDWLRIRGGGVRPGRVRPFHDHRIAMAFAVAGLPVGVEVEEPHWAEISYPGFFQDLLRLCAAS	soluble
MDAHLVQAKKTSTASELSDSSLTFPFIGDYLSSPSLTTSDYVSDCSNLTVEGPVPANQEFSSSDESSVYISSALRLADYAFTPDDNIRIKPDAVIVICTQCQHQIQDKFFLSIDGRNYHENCLQCSTCENPLSNKCFYKDKTFYCKGCYFRTHVTSTASSCRELGPKCASCDRTIQATDWVRRARNYVYHLACFSCNQCKRQLSTGEEYALQEGNLLCKQHFLELVEGDSGVSSQKAKTKRVRTTFAEDQLSVLQTYFNRDSNPDGADLEKIASMTGLSKRVTQVWFQNSRARQKKWHQKSEGDNGDSQRSSVGPSSPSQKSDSSSEMMYPTSVTTSVEDAIPDSIVILGSLQFD	not soluble
MDALEIFKTLFSLVMRFSSYLPSNEEISDMKTTELYAFLYVALFGPKKMKEIAEFLSTTKSNVTNVVDSLEKRGLVVREMDPVDRRTYRVVLTEKGKEIFGEILSNFESLLKSVLEKFSEEDFKVVSEGFNRMVEALSREGR	not soluble
MDALELLINRRSASRLAEPAPTGEQLQNILRAGMRAPDHKSMQPWHFFVIEGEGRERFSAVLEQGAIAAGSDDKAIDKARNAPFRAPLIITVVAKCEENHKVPRWEQEMSAGCAVMAMQMAAVAQGFGGIWRSGALTESPVVREAFGCREQDKIVGFLYLGTPQLKASTSINVPDPTPFVTYFHH	soluble
MDAYRYWSREAIRADIDTRRHCLHIAIENFENDANIGTVVRTANAFAVDTVHIVGRKRWNRRGAMVTDRYQHLMHHPTTADVVAWAKQQGLTIVAIDNTPGCVPLETAELPERCLLLFGQEGPGVTQEAQDNARMTCSIAQFGSTRSINAGVAAGIAMHAWIRQHADLDNAW	not soluble
